Experiment [1] concerns the target cell surface IFNAR1/IFNAR2 heterodimer (RAW-Lucia ISG cells) (Mus musculus (Mouse)) (UniProt P33896).
Experiment [2] has as its target human R2-SUB (human) (UniProt P01563).
In experiment [3] the target is IFNa4-Fc (human). Nature of the experiment: cell-based or functional assay.

From US20200123227A1, “INTERFERON PRODRUG FOR THE TREATMENT OF CANCER” (The Board of Regents of the University of Texas System, published 2020) come the findings set out here.

Take “R1-IFNa4-Fc (from UniProt P07351) (Fc fusion)”: in experiment [1], the IFN activity, luciferase reporter assay in RAW-Lucia ISG cells is < 125 fold. Turning to “R2-IFNa4-Fc (from UniProt P07351) (Fc fusion)”, the IFN activity, luciferase reporter assay in RAW-Lucia ISG cells in experiment [1] was > 125 fold. rmMMP-9 (from UniProt P41245) (enzyme): the cleavage by rmMMP-9 at 37 C for 0, 0.5, 2 or 6 hours, digests separated on a stain-free gel in experiment [2] was 100%.

B1: Mouse IFNAR2-ECD (receptor)
chain: SLETITPSAFDGYPDEPCTINITIRNSRLILSWELENKSGPPANYTLWYTVMSKDENLTKVKNCSDTTKSSCDVTDKWLEGMESYVVAIVIVHRGDLTVCRCSDYIVPANAPLEPPEFEIVGFTDHINVTMEFPPVTSKIIQEKMKTTPFVIKEQIGDSVRKKHEPKVNNVTGNFTFVLRDLLPKTNYCVSLYFDDDPAIKSPLKCIVLQPGQESGLSESA
Consider B1, for which, in experiment [3], the “IFN activity, luciferase reporter assay in RAW-Lucia ISG cells” value was ≥ 125 fold.

B2: Mouse IFNAR1-ECD (receptor)
chain: ENLKPPENIDVYIIDDNYTLKWSSHGESMGSVTFSAEYRTKDEAKWLKVPECQHTTTTKCEFSLLDTNVYIKTQFRVRAEEGNSTSSWNEVDPFIPFYTAHMSPPEVRLEAEDKAILVHISPPGQDGNMWALEKPSFSYTIRIWQKSSSDKKTINSTYYVEKIPELLPETTYCLEVKAIHPSLKKHSNYSTVQCISTTVANKMPVPGNLQVDAQGKSYVLKWDYIASADVLFRAQWLPGYSKSSSGSRSDKWKPIPTCANVQTTHCVFSQDTVYTGTFFLHVQASEGNHTSFWSEEKFIDSQKHILPPPPVITVTAMSDTLLVYVNCQDSTCDGLNYEIIFWENTSNTKISMEKDGPEFTLKNLQPLTVYCVQARVLFRALLNKTSNFSEKLCEKTRPGSFST
B2: in experiment [3], the “IFN activity, luciferase reporter assay in RAW-Lucia ISG cells” value is ≥ 125 fold.
